From PMC7176432, “Single-molecule functional anatomy of endogenous HER2-HER3 heterodimers” (eLife, 2020) come the findings set out here.

The data set deals with T1, Nc1ncnc2c1ncn2[C@@H]1O[C@H](COP(=O)(O)OP(=O)(O)OP(=O)(O)O)[C@@H](O)[C@H]1O.
T1 construct: entire endogenous HER2, ligand-free HER2 complexes immunoprecipitated from SKBR3 cells
Kind of data set: Michaelis-Menten titration of ATP, single-molecule pTyr1196 immunolabeling (KM). The format is biochemical, Homo sapiens. The note with it: Mg2+.

For HER2 (Homo sapiens), the Km stood at 16.46 µM.
